Measurements reported in patent US20240093191A1, “COMPOSITIONS AND METHODS FOR TREATING DISEASE ASSOCIATED WITH DUX4 OVEREXPRESSION” (RESEARCH INSTITUTE AT NATIONWIDE CHILDREN'S HOSPITAL, priority 2021, published 2024).

Columns and labels:
Format in all cases: cell-based, human
[1] = test system: DUX4-FL (DUX4 ORF + 3'UTR, RenLuc-DUX4-FL); assay: Dual-luciferase assay, RenLuc-DUX4-FL reporter co-transfected with miRNA plasmids in HEK293 cells; details: positive control, molar ratio not stated, 48 h
Source text: FIG. 1A. Dual-luciferase assay to test the ability of U6.mir-675 to target DUX4. Shown here is the mir-675 expression plasmid used in this study. In this construct, the RNA polymerase III U6 promoter (U6p) controls the expression of mir-675. A terminal signal formed of a stretch of six T nucleotides allows the termination of transcription. On the right, the secondary structure of the mir-675 along with its 5′ and 3′ end flanking sequences (Boxed) is shown. At the 5′ end, the flanking sequence is of 40 nucleotides long and at the 3′ end, the flanking sequence is of 47 nucleotides long starting from the nucleotide at position 114. U6.mir-675 was tested to target DUX4 using the dual-luciferase assay. To do this, DUX4 was cloned in the RenLuc-DUX4-FL expression plasmid (FIG. 1A), i.e., DUX4-FL (DUX4 ORF without V5 tag+3′UTR) was PCR amplified using CMV.DUX4-FLΔV5 as template with the following primers: forward: 5′ […] 3′ (SEQ ID NO: 125), reverse: 5′ […] 3′ (SEQ ID NO: 126). The PCR product was then cloned into a previously designed RenLuc SD5 mutant plasmid using XhoI/SpeI restriction sites and the RenLuc.SD5 mutant-DUX4 3′UTR plasmid backbone. The Renilla luciferase gene has a splicing donor mutation (*SID5) that prevents the alternative splicing of the DUX4-FL mRNA (Ansseau et al. (2015) PLoS One, 10, e0118813). The dual-luciferase assay was performed by co-transfecting the RenLuc-DUX4-FL and U6.mir-675 expression plasmids into the human embryonic kidney HEK293 cells. 48 hours after transfection, both the Renilla and Firefly luciferase activities were measured. The latter was used to normalize for Renilla luciferase activity. The non-targeting RenLuc control backbone plasmid (RenLuc) was co-transfected with U6.mir-675 and the RenLuc-DUX4-FL co-transfected with U6.milacZ as negative control reactions. In the other reactions, mir-675 reduced the relative Renilla luciferase activity by 24±3% (P<0.0001, ANOVA, N=3), 28±2% (P<0.0001, ANOVA, N=3) and 33±3% (P<0.0001, ANOVA, N=3) at a molarity ratio U6.mir-675: RenLuc-DUX4-FL (n:n) of 10 to 1, 20 to 1 and 40 to 1, respectively. All readings were normalized to the U6.milacZ (negative control). Six replicate data were averaged per experiment and individual experiments were performed in triplicate (N=3). Results were reported as the average relative Renilla luciferase activity±SEM for all combined experiments. […] A representative western blot gel and the quantification results of three independent western blot replicates (N=3) performed on 15 μg of total protein extracts collected from HEK293 cells 24 hours after co-transfection with the AAV.CMV.DUX4-FL and the U6.mir-675 or the human long non-coding H19 expression plasmid (CMV.H19) is shown here. […]

[2] = test system: DUX4 ORF (RenLuc-DUX4 ORF); assay: Dual-luciferase assay, RenLuc-DUX4 ORF reporter co-transfected with miDUX4 plasmids in HEK293 cells; details: HEK293, 24 h
How it was run: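 HEK293 cells were co-transfected by lipofection with a psiCheck2 reporter carrying the DUX4 ORF as the Renilla luciferase 3′UTR and U6-driven miDUX4 plasmids, at increasing reporter:miRNA molar ratios. Renilla/Firefly ratio was read 24 h or 48 h post-transfection, with Firefly as transfection normaliser. Values are means ± SEM of triplicates over 3 experiments.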

DUX4 protein = assay: Western blot of V5-tagged DUX4 protein in co-transfected HEK293 cells; details: HEK293
mir-675-5p [3] = assay: Small-transcript northern blot of mir-675 processing in HEK293 cells; details: HEK293; anti-mir-675-5p biotinylated probe
Source text: Small-Transcript Northern Blots. […] (SEQ ID NO: 148)).

mir-675-5p [4] = assay: ddPCR of all mature mir-675-5p sequences (TaqMan Advanced miRNA cDNA synthesis) in HEK293 cells
Method: Digital Droplet PCR (ddPCR). For mir-675 and mi405 constructs, RNA extraction was carried out as described for QPCR above. For cDNA synthesis, the TaqMan advanced cDNA synthesis kit (Thermo Fisher) was used and cDNA was prepared by following manufacturer's instructions. ddPCR was carried out using 1× ddPCR Supermix for probes (No dUTP) (Bio-Rad), 1× commercially available mir-675 advanced TaqMan probe, or a custom made mi405 advanced TaqMan probe (ThermoFisher) and 50 ng of cDNA. For DUX4 cDNA synthesis, the High-Capacity cDNA Reverse Transcription Kit (Applied Biosystems) was used according to manufacturer's instructions. Within the same cDNA reaction, 1×RT random hexamer primers and 25 pmoles of the Oligo(dT) primer were used to generate cDNA for DUX4 and DUX4-responsive biomarkers and for mouse Rpl13A, used as a reference gene. To quantify DUX4, the ddPCR reaction mixture (20 μL) contained 1× ddPCR Evagreen Supermix (Bio-Rad), 1 μM of forward and reverse DUX4 primers (Sharma et al., J Genet Syndr Gene Ther 2016 August; 7(4):303. doi: 10.4172/2157-7412.1000303. Epub 2016 Aug. 8), and 50 ng of cDNA. To quantify Rpl13A and DUX4-responsive biomarkers (Trim36 and Wfdc3), the 1× ddPCR Supermix for probes (No dUTP) and TaqMan specific probes were used for each of the genes. Droplets were generated using the Automatic Droplet generator QX200 AutoDG (Bio-Rad), the reactions were amplified in a C1000 Touch™ Thermal Cycler with 96-Deep Well Reaction Module (Bio-Rad). Cycling conditions were set up following the QX200 ddPCR Evagreen Supermix protocol. All assays are compatible with an annealing temperature of 58° C. Droplets were then read using the QX200 droplet reader (Bio-Rad). Finally, data were analyzed using the QuantaSoft analysis software (Bio-Rad). For quantification, each reaction of 20 μL was estimated to give at least 10,000 acceptable droplets.
In order to quantify the level of all these mature sequences, the TaqMan advanced miRNA cDNA synthesis method that uses universal reverse transcription (RT) chemistry to synthesize cDNA templates that can be quantified using the TaqMan Advanced miRNA probes was used. In this method, most of the processed mature miRNA sequences were quantified.

pri-mir-675 = assay: TaqMan QRT-PCR of pri-mir-675 from transfected constructs in HEK293 cells; details: 24 h post-transfection
Source text: RNA Extraction. RNA from HEK293 cells was extracted for Northern blot assay and QPCR. The miRVANA miRNA isolation kit (ThermoFisher Scientific) was used according to manufacturer's directions to extract total RNA encompassing small RNAs, such as miRNAs. To extract RNA from C57BL/6 skeletal muscles, cryopreserved muscles were crushed under suboptimal temperatures using liquid nitrogen and using mortar and pestle. Crushed muscles were then lysed using […] of miRVANA miRNA isolation kit lysis buffer, a TissueLyser and 1.0 mm zirconia beads (Biospec). Muscle was homogenized at 30 Hz for 30 sec with 10 sec rest. This was repeated 3 times.
TaqMan Gene Expression Assay. QRT-PCR was carried out to quantify the expression of pri-mir-675, mir-675-5p and mi405 using TaqMan probes (ThermoFisher Scientific). Experiments were started by eliminating genomic DNA from the RNA preparations, and then cDNA was generated using the High-Capacity cDNA Reverse Transcription Kit (Applied Biosystems) following manufacturer's instructions. Within the same cDNA reaction, 1×RT random hexamer primers were used to generate the cDNA for RPL13A, used as a reference gene, and for pri-mir-675. To generate the cDNA for mir-675, the RT mir-675 reverse primer provided by ThermoFisher Scientific was used. For mi405, the mi405 qPCR protocol was done as it was previously described [Wallace et al., Mol. Ther. Methods Clin. Dev. 8: 121-30 (2018)]. To quantify mir-675 and mi405 levels, RNA was extracted using the total RNA protocol for the mirVana miRNA Isolation Kit (Ambion) from HEK293 cells. cDNA was generated using the High-Capacity cDNA Reverse Transcription Kit (Applied Biosystems) using a mix of random hexamer primers and specific reverse primer for pri-mir-675 and mir-675-5p. For mi405, 200 nM of the stem-loop forming primer (5′-[…]-3′) (SEQ ID NO: 144) was also used for the RT step. A custom TaqMan assay (Applied Biosystems) including 1.5 μM of Forward primer (5′-[…]-3′) (SEQ ID NO: 145), 0.7 μM of Reverse primer (5′-GTGCAGGGTCCGAGGT-3′) (SEQ ID NO: 146), and 0.2 μM of mi405 probe (5′-6FAM-ATACGACGTCCAGGAT-3′) (SEQ ID NO: 147) was then run using the CFX Connect Real Time system apparatus (Bio-Rad). RPL13A (Mm02526700_g1; Applied Biosystems) served as the reference gene. The TaqMan gene expression assay consisted of using the TaqMan Gene Expression Master mix and TaqMan probes purchased from ThermoFisher Scientific. 1× of probe was mixed with 1× of the TaqMan Gene Expression Master mix (ThermoFisher Scientific), and with 20 ng of cDNA. The mir-675- and mi405-specific primers and probes were designed to quantify only the mir-675-5p and mi405 mature sequence (see TaqMan Gene Expression Master mix protocol).

B1: U6.mi405: original artificially designed miDUX4 (mi405) U6 expression plasmid, Wallace et al. (nucleic acid)
DNA: ACGCCGCCATCTCTAGGCCCGCGCCGGCCCCCTCGCACAGACTTGTGGGAGAAGCTCGGCTACTCCCCTGCCCCGGTTAATTTGCATATAATATTTCCTAGTAACTATAGAGGCTTAATGTGCGATAAAAGACAGATAATCTGTTCTTTTTAATACTAGCTACATTTTACATGATAGGCTTGGATTTCTATAAGAGATACAAATACTAAATTATTATTTTAAAAAACAGCACAAAAGGAAACTCACCCTAACTGTAAAGTAATTGTGTGTTTTGAGACTATAAATATCCCTTGGAGAAAAGCCTTGTTTGCGTTTAGTGAACCGTCAGATGGTACCGTTTAAACTCGAGTGAGCGATCCAGGATTCAGATCTGGTTTCTGTAAAGCCACAGATGGGAAACCAGATCTGAATCCTGGACTGCCTACTAGAGCGGCCGCCACAGCGGGGAGATCCAGACATGATAAGATACATTTTTT
reduction of relative Renilla luciferase activity [1]: 80±2%
reduction of relative Renilla luciferase activity ([2]; 1:4 DUX4:mi405 molar ratio, normalized to miGFP): 85±1%
reduction of Renilla luciferase activity ([2]; DUX4:mi405 molar ratio 2 to 1, normalized to U6.miGFP): 62±2%
reduction of DUX4 protein levels (DUX4 protein; 1:4 DUX4:mi405 molar ratio, 24 h, normalized to miGFP, N=2): 79±1%

B2: U6.mir-675NF: U6 mir-675 construct with no flanking sequences (nucleic acid)
DNA: TCTAGAGATCCGACGCCGCCATCTCTAGGCCCGCGCCGGCCCCCTCGCACAGACTTGTGGGAGAAGCTCGGCTACTCCCCTGCCCCGGTTAATTTGCATATAATATTTCCTAGTAACTATAGAGGCTTAATGTGCGATAAAAGACAGATAATCTGTTCTTTTTAATACTAGCTACATTTTACATGATAGGCTTGGATTTCTATAAGAGATACAAATACTAAATTATTATTTTAAAAAACAGCACAAAAGGAAACTCACCCTAACTGTAAAGTAATTGTGTGTTTTGAGACTATAAATATCCCTTGGAGAAAAGCCTTGTTTGCCCCAGGGTCTGGTGCGGAGAGGGCCCACAGTGGACTTGGTGACGCTGTATGCCCTCACCGCTCAGCCCCTGGGGTTTTTT
mature mir-675-5p bands on northern blot (mir-675-5p [3]): detectable mir-675 mature sequences
fold change of all mature mir-675-5p sequences compared to U6.mir-675 (mir-675-5p [4]): 176±60%
Average inhibition efficiency (%) of DUX4 protein levels (DUX4 protein; CMV.DUX4-FL/CMV.eGFP, molar ratio 1 to 3, eGFP normalizer, relative to U6-milacZ, N = 3-8): 69 ± 6 (N = 5) %
pri-mir-675 levels compared to U6.mir-675 (pri-mir-675): 213±28%
